Data reported in the nanobody polyreactivity screen of Harvey et al. (2022).

Assay: yeast display, Sf9 membrane polyspecificity reagent, FACS + sequencing; frameworks hold sequencing errors
Outline: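 In a synthetic yeast display library (Saccharomyces cerevisiae BJ5465), nanobody expression was induced with galactose for 36–48 hours. FACS gates were set low and high (top ~1%) using anti-HA fluorescence for expression and streptavidin fluorescence for binding of the Sf9 membrane reagent. Each polyreactivity label is drawn from the gate of origin.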

Sequence	polyreactivity (PSR sort gate)
QVQLVESGGGLVQAGGSLRLSCAASGRIFSFNAMGCYRQATGKERELVAAISWSTGSTFYADSVKGRFTISRDYAKNTVFLQMNSLKPEDTAVYYCAREYYYRRGFFLRGYWGQGTQVTVSS	high polyreactivity
QVQLVESGGGLVQAGGSLRLSCAASGSIFRFYAMGWYIQAPGKERELVAGITWSGASTYYADSVKGRFTISRDNAKNTVYLQMNSLKPEDNAVYYCSAKSLIVRYDSWGQGTQVTVSS	high polyreactivity
QVQLVESGGGLVQAGGSLRLSCAASGSIFYPYAMGWYRKAPGKERELVASITINDGSTYYADSVKGRFTISRDNAKHTFYLPMNRLIQEDPAVYYCNVDPVPGFGSVYEYWGQGTQVTVSS	low polyreactivity
QVQLVESGAGIVQAGGSLRLSCAASGSIFYYNAMGVYRQAPGKERELVAAITSADSTNYADSVKGRFTISRDNAKNTVYLQMNSLKPEDTAVYFCAADFLAALTYYRTYDYWGQGTQVTVSS	low polyreactivity
QVQLVESGGGLVQAGGSLRLSCAASGSTFYGYAMGWYRQAPGKERELVAAISWSGASTYYADSVKGRFTISRDNAKNTVYLQMNSLKPDDTAVYYCNKRYRGYFNWPHGYWGQGTQVTVSS	high polyreactivity
QVQLVESGGGLVQARGSLRLSCAASALTFRIYDMGWYRQAPGKERELVAAITRGGSTYADSVKGRFTISRDNAKNTVYLQMNSLKPEDTAVYYCAARVRSTSQVSASPVWYYYWGQGTQVTVSS	high polyreactivity
QVQLVESAGGLDQAGGSLRLICAASGGTFSFYAMGWYRHAPGKEREFVAAITASDGSTYADSVKGRFTISRDNAKNTVYLQMNSLKPEDTAVYYCAVAGGEFSSYGYWGQGTQVTVSS	low polyreactivity
QVQLVESGGGLVQAGGSLRLSCAASGSTFPYYTMGWYRQAPGKERELVAAITWRGGRTYYADSVKGRFTISRDNAKNTVYLQMNSLKPEDTAVYYCAAVTWVHRYSRFHPFVAFDFWGQGTQVTVSS	high polyreactivity
QLQLVESGGGLVQAGGSLRLSCAASVRTFQNYAMGWYRQAPGKEREFVAAITWRVGTTYYADSVKGRFTISRDNAKNTVYLQMNSLKPEDTAVYYCAARSRTVRYDYWGQGSQVTVSS	high polyreactivity
QVKLVESGGGLVQAGGSLRLICAASGMTFVIYAMGWYRQAPGKERELVARNTWSGGSTYYADSEKGRFTISRDNSKNTVYLQMNSLNPEDSAVYYCAARRFYYYTAGYDYWGQGTQVTVSS	low polyreactivity
QVQLVESGGGLVQAGGSLRLSCAASGIIFAYNAMGWYRQAPGKERELVAAISVIGGTTYYADSVKGRFTISRDNAKNTVYLQMNSLKPEDTAVYYCAVDSVQYGGGYERLHELYYWGQGTQVTVSS	low polyreactivity
QVHLLDSVGGLVQAGGSLRLSCAACGRIVGTNAMGWYRQAPGKERELVATITRGGGNTYYADSVKGRFTISRDNAKNTVYLQLNSLKPEDTAGYDCAAKFHRFAWYSHYAYWGQGTQVTVSS	low polyreactivity
QVQLVESGGGLVQAGGSLRLSCAASGRTFGQHAMGWYRQAPGKDRELVASIRSGGITDYADSVKGRFTISRDNAKNTVYLQMNSLKPEDTAVYYCNAEGVWWSTRYDSWGQGTQVTVSS	low polyreactivity
QVQLVESGGGLVQAGGSLRLSCAASGFIFGFYAMGWYRQAPGKERELVAAISGGGGRTNYADSVKGRFTISRDNAKNTVYLQMNSLKPEDTAVYYCARSPSYYSYTFGRQAYGNDYWGQGTQVTVSS	high polyreactivity
QVQLVESGGGLVQAGGSLRLSCAASGLTFSWNAMGWYRQAPGKERELVAAISSRGGSTYYADSVKGRFKISRDNAKNTVYLQMNSLKPEDTAVYYCNAHGRRFLGDYGYWGQGTQVTVSS	low polyreactivity
QVQLVESGGGLVQAGGSLRLSCAASGRTFRYYTMGWYRPAPGKEREFVSSISWNGGSTYYADSVKGRFTISRDNAKNTVYLQIKSLKPEDTAVYYCSADDPYRVYRGPYGYWGQCTQVTVSS	high polyreactivity
QVQLVESGGGLVQAGGSLRLSCAASGYIFDIYAMGWYRQAPGKERELVAVITRSGGGTYYADSVKGRFTISRDNAKKTVYLQMNSLKPEDTAVYYCAAESYVYGGSDYDYWGQGTQVTVSS	low polyreactivity
QVQLVESVGGLVQAGGSLRLSCAASGITLYGYAMGWYRQAPGKERELVAAISWRGGRTYYADSVKGRFTISRDNAKNTVYVQMNSLKPEDTAVYYCLARSYYNWYDYWGQGTQVTVSS	high polyreactivity
QVQLVESGGGLVQAGGSLRLSCAASGSTFADYVMGWYRQAPGKERELVAAISRSGGSTYYADSVKGRFTISRDNAKNTVYLQMNSLKPEDTAVYYCATDITPAISVEYDYWGQGTQVTVSS	high polyreactivity
QVQLVESGGGLVQAGGSLRLSCAASGSIFQAYVMGWYRQAPGTERELVATIDRRGGITYYADSVKGRFTISRDNAKNNVYLQMNSLKPEDTAVYYCATALIVLGPSRYEYWGQGTQVTVSS	high polyreactivity
QDQLVESGGGLVQAGCSLRLSCAASGRTFTYYAMGWYRQAPGKERELVAALSKRGGTTYYADSVKVRFSMSRDNAKNTDYLKMNSLKAVDTAVYYCATEGNLRTAGYAYDHYYWGQGTQVTVSS	high polyreactivity
QVHLVDSGGGLVQAGGSLRLTCAASGITFYRYAMGWYRQAPWKERELVAAITGGGRTYYADSVKGRFTISRDNAKNTVYLQMNSLKPEDTAVYYCNVRTLHSVRGYDYWGQGTQVTVSS	high polyreactivity

Sequence	polyreactivity (PSR sort gate)
QVQLLESGGGLVQAGGSLRLSCAASGSTFKKNAMGWYRQAPGKETELVAAISGIGTRTSYADSLKGRFTISRDNAKNTVYLQMNRLKPEDTAVYYCAARYYGFPSTLKYDYWGQGTQVTVSS	high polyreactivity
QVQLVESGGGLVQAGGSLRLSCAASGSTFLDNAMGWYRQAPGKERELVAVITASDTNTNYADSVKGRFTISRDNAKNTVYLQMNRLKPEDTAVYYCNADATYTSYDYWGQGTQVTVSS	low polyreactivity
QVQLQESGGGLVQAGGSQRLSCAASGYIFYFQYMGWYRQAPGKEREFVAAISDGANTNYADSVKGRFTISRDNAKNTEYLQMNSLKPEDTAVYYCAAGLSTGTIAYGYNYWRQGTQVTVSS	low polyreactivity
QVQLVESGGGLVQAGGSLRLSCAASGSIFYPYAMGWYRQAPGKERELVAAIRNGGSTYYADSVKGRFTISRDNAKNTVYLHMNSLKPEDTAVYYCAASVRRRHPFEYWGQGTQVTVSS	high polyreactivity
QVQHVESRGGLVQAGGSLRLSCAASGLIFTCNAMGWYRQAPGKERELVAAISTGGSTSYADSVKGRFTIARDNAKNTVYLQMNSLKPEDTAVYYCARDSSIWSHGSWYDYWGQGTQVTVSS	low polyreactivity
QVQLVESGGVFDQARGSLRLSCAASGSIFAIYAMGWYRQAPGKERELVAAISRSGGRTYYADSVKGRFTISRDNAKNTVYLQMNSLKPEDTAVYYCAAQGVSSGFRYRGGYWGQGTQVTVSS	high polyreactivity
QVQLVESGGGLVQAGGSLRLSCAASGIIFANNAMGWYRQAPGKERELVARISRSGGGTYYADSVKGRFTISRDNAKNTVYLQMNSLKPEDTAVYYCNAESSYYYGTAAYEYWGQGTQVTVSS	low polyreactivity
QVQLVESGGGLVQAGGSLRLSCAASGSTIFENVMGWYREAPRKEREFVAAINTSGRSTYYADSVKGRFTISRDNAKNTVFLQMNSLKPEDTAVDYCARDSYWEMDYWGQGTQVTVSS	low polyreactivity
QVQLVESGGGLVQAGGSLRLSCAASGSIFRRYAMGWYRHAPGKEREFVAAITRSGGGTYYADSVKGRFTISRDNAKNTVSLQMNSLKPEDTAVYFCAKDVFVQRSRYPEGDYWGQGTQVTVSS	high polyreactivity
QVQLVESGGGLVQAGGSLRLSCAASGRIFRYYAMGWYRQAPGKERELVAAINSGGSTKYADSVKGRFTISRDNAKNTVYLQMNSLKPEDTAVYYCAAVYTPDSRYDYWGQGTQVTVSS	high polyreactivity
QVQLVESGGGLVQAGGSLRLSCAASGSTFSTNAMGWYRPAPGKERELVAAISRSGGSTYYADSVKGRFTHSRDNEKNTVYLHMNSLKPEDTAVYYCARVSGYRYDYWGQGTQVTVSS	high polyreactivity
QVQLVESGGGLVQAGGSLRLICAASGSIFDFYAMGWYRQAPGKERELVAAISRNGGSTYYADSVKGRFTISRDNAKNTFYLQMNSLKPEDTAVYYCNKTVYVGAKEYDYWGQGTQVTVSS	high polyreactivity
QVQLVESGGGLVQAGGCLRLSCAASGVIFTRNVMGWYRQAPGKERELVAAISSGGRTYYADSVKGRFTISRDNAKNTVYLQMNSLKQEDTAVYYCNAGNRGVYRYDYWGQGTQVTVSS	high polyreactivity
QVQLVESGGGLVQAGGSLRLSCAASGRTFHYYAMGWYRQAPGKERELVASISSGGSTHYADSVKGRFTISRDNANNTGYLQMNSLKPEDTAVYYCNRVDGYGPRNKVPYVTYGVYYWGQGTQVTVSS	low polyreactivity
QVQLVESGGGLVQAGGSLRLSCAASGLIFVVYVMGWYRQAPGKERQLVAAMYGSGDSTYYADSVKGRFTISRDNAKNSVSLKMNSLKPEDTAVYSCAAKAFISDGYWYGYWGQGTQVTVSS	high polyreactivity
QVQLVESGGGLVQAGGSLRLSCAASGITIRGYAMGWYRQAPGKERELVAAINTRTSTYYADSVKGRFTISRDNAKNTVYLQMNSLKPEDTAVYYCNRDPVYYDFDYWGQGTQVTVSS	low polyreactivity
QVQLVESGGGLVQAGGSLRLSCAASGFIFPPYDMGWYRQAPGKERELVAGISDVGTTYYADSVKGRYTISRDNAKNPVYLQMNSLKPEDSAVYYCAAESQGDDQFWTGGYDSWGQGTQVTVSS	low polyreactivity
QVQLVESGGGLVQAGGSLRLSCAASGFTFGSNAMGWYRQAPGKERELVAAISSRGGRTYYADSVKGRFTISRDNAKNTVYLQMNSLKPEDTAVYYCNADATVAWREQEYEYWGQGTQVTVSS	high polyreactivity
QVQLVESGGGLVQAGGSLRLSCAASGRIIKYYTMGWYRQAPGKERELVASITGTGGSTYYADSVKGRFTISRDNAKNTVYLQMNSLKPEDTAVYYCAARLSVLGGYRGRNAWRFDHWGQGTQVTVSS	high polyreactivity
QVQLVESGGGLVQAGGSLRLSCAASGSTFRYNAKGWYRQAPGKERELVAAINRGGGTDYADSVKGRFTISRDNAKNTVYLQMNSLKPEDTAVYYCAKQFVSYNRWLAYGYWGQATQVTVSS	low polyreactivity
QVQLGESGGGLVQAGGSLRLSCAASGFPFQGNAMGWSRQAPGKERELLAAISYDGGSSYYADSVKGRFTISRDNAKNTVYLQMNSLKPEDTAVYYCAAYVVTWYYYWGQGTQVTLSS	high polyreactivity
